System: cerebral ischemia reperfusion model of middle cerebral artery obstruction (MCAO)
Experiment: Cerebral ischemia reperfusion model of middle cerebral artery obstruction (MCAO)
Type: in vivo
Conditions: SD rats, 3 μg/kg once via vena caudalis
Excerpt: A cerebral ischemia reperfusion model of middle cerebral artery obstruction (MCAO) was established by thread embolizing the internal carotid artery of SD rats (purchased from Shanghai Sippr bk Laboratory Animal Co. LTD.) A positive control 1 group (urinary kallikrein, Guangdong Tianpu Biochemical Pharmaceutical Co., LTD.), a positive control 2 group (tPA, Shanghai Boehringer Ingelheim Pharmaceuticals Co., LTD), a model control group (PBS), a sham group, a kallikrein group (from Changzhou Qianhong Biochemical Pharmaceutical Co., LTD.), a conjugate 1 group, a conjugate 2 group, a conjugate 3 group, and a conjugate 4 group were arranged respectively. Administration by injection through vena caudalis was performed once at 3 μg/kg (calculated according to the protein amount) immediately after the cerebral ischemia reperfusion. Neurologic deficit symptoms were observed 24 h after the reperfusion, and the cerebral infarction area was determined. In the model group, an equal volume of PBS was injected through vena caudalis into the rat. In the sham group, only blood vessels were separated, no embolizing thread was inserted, and an equal volume of PBS was injected through vena caudalis into the rats. Neurologic deficit symptoms were evaluated employing an improved Bederson 5-point system method. Neurologic deficit symptoms of the rats after brain trauma were evaluated by a single-blind method, i.e., the animals were marked according to groups by designers of the experiment, and scores of the neurologic deficit symptoms were given by experimenters blind to the grouping situation. The cerebral infarction area was calculated employing the following method. Cerebrums of the SD rats were stained with TTC (2,3,5-triphenyltetrazolium chloride) and then the photographs were subjected to statistics using an image analysis software, and the percentage of cerebral infarction area was calculated according to the following formula: % cerebral infarction area=100×(total ischemic area/total area on the right side)

B1: Positive control 2: tPA, Shanghai Boehringer Ingelheim Pharmaceuticals (protein, UniProt P00750 36-562, looked up)
Tissue-type plasminogen …: SYQVICRDEKTQMIYQQHQSWLRPVLRSNRVEYCWCNSGRAQCHSVPVKSCSEPRCFNGGTCQQALYFSDFVCQCPEGFAGKCCEIDTRATCYEDQGISYRGTWSTAESGAECTNWNSSALAQKPYSGRRPDAIRLGLGNHNYCRNPDRDSKPWCYVFKAGKYSSEFCSTPACSEGNSDCYFGNGSAYRGTHSLTESGASCLPWNSMILIGKVYTAQNPSAQALGLGKHNYCRNPDGDAKPWCHVLKNRRLTWEYCDVPSCSTCGLRQYSQPQFRIKGGLFADIASHPWQAAIFAKHRRSPGERFLCGGILISSCWILSAAHCFQERFPPHHLTVILGRTYRVVPGEEEQKFEVEKYIVHKEFDDDTYDNDIALLQLKSDSSRCAQESSVVRTVCLPPADLQLPDWTECELSGYGKHEALSPFYSERLKEAHVRLYPSSRCTSQHLLNRTVTDNMLCAGDTRSGGPQANLHDACQGDSGGPLVCLNDGRMTLVGIISWGLGCGQKDVPGVYTKVTNYLDWIRDNMRP
  amelioration of cerebral infarction status of the model animals (in words): no apparent amelioration
24 h after reperfusion, TTC staining
  Cerebral infarction area (%): 31.55 ± 2.71%
24 h after reperfusion, improved Bederson 5-point system
  Score of neurologic deficit symptom: 3.00 ± 0.20
